Data taken from PMC2918618, “Characterization of the TnsD-attTn7 complex that promotes site-specific insertion of Tn7” (Mobile DNA, 2010).

Columns and labels:
Assay in all cases: EMSA; Gel-shift buffer not given (as described in ref. 6); TnsD stored in 500 mM KCl, 50 mM Tris-HCl pH 8.0, 1 mM EDTA, 2 mM DTT, 25% glycerol
TnsD P417L = molecular target: T1, TnsD P417L (Escherichia coli (transposon Tn7), UniProt P13991 1-508, P417L); conditions: protein: recombinant; tags: intein-chitin tag, cleaved with DTT
T1 sequence: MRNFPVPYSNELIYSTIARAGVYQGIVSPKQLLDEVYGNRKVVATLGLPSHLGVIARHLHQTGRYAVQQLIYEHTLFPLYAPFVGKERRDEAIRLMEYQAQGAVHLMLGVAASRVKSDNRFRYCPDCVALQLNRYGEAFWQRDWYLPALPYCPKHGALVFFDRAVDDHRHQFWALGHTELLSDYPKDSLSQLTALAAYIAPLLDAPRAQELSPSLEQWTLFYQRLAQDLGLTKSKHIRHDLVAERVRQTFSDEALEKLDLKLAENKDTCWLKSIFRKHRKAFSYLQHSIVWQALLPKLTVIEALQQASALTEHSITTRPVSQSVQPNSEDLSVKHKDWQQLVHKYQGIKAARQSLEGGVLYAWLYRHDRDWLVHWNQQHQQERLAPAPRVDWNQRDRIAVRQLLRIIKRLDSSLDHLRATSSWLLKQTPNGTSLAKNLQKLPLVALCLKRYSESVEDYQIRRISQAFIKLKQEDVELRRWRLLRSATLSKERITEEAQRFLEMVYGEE

TnsD A497I = molecular target: T2, TnsD A497I (Escherichia coli (transposon Tn7), UniProt P13991 1-508, A497I); conditions: protein: recombinant; tags: intein-chitin tag, cleaved with DTT
T2 sequence: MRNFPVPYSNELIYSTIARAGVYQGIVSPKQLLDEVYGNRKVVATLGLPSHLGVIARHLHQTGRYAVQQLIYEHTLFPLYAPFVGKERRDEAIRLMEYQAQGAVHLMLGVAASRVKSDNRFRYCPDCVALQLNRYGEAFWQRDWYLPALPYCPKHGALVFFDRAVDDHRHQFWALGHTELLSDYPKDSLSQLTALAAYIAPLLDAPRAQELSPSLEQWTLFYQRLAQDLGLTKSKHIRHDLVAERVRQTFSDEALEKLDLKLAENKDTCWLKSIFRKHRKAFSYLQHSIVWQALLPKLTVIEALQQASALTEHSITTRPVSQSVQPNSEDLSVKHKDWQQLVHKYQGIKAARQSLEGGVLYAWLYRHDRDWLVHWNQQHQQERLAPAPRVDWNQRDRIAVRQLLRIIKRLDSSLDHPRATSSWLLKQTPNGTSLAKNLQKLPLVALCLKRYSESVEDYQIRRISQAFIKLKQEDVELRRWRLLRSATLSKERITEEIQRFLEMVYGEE

TnsD W371Z = molecular target: T3, TnsD W371Z (Escherichia coli (transposon Tn7), UniProt P13991 1-370); conditions: protein: recombinant
T3 sequence: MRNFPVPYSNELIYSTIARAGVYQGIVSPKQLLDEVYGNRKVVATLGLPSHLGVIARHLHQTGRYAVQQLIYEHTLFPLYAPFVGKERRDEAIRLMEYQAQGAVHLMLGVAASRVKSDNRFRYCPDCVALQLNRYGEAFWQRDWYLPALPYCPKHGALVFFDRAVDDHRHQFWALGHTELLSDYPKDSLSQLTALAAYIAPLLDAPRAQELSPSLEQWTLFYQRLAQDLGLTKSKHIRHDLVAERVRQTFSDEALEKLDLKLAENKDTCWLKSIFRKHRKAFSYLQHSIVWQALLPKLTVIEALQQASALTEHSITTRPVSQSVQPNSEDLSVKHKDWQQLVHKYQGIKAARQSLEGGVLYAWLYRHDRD

TnsD G109E = molecular target: T4, TnsD G109E (Escherichia coli (transposon Tn7), UniProt P13991 1-508, G109E); conditions: protein: recombinant; tags: intein-chitin tag, cleaved with DTT
T4 sequence: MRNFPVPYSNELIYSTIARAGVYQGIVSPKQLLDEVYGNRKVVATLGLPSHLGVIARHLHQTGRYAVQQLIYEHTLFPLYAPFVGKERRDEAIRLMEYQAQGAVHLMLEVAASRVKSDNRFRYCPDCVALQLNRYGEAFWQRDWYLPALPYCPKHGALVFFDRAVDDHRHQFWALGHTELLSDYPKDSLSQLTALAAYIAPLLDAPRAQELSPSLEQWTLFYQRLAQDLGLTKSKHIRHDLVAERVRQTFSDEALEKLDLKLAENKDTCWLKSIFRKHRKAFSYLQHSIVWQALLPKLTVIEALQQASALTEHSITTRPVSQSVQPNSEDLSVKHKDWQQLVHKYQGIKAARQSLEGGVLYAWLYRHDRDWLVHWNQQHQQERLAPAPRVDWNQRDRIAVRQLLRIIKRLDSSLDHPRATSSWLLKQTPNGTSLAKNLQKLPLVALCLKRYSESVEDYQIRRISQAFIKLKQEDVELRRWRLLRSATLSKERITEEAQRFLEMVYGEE

TnsD wt = molecular target: T5, TnsD wt (Escherichia coli (transposon Tn7), UniProt P13991 1-508); conditions: protein: recombinant; tags: intein-chitin tag, cleaved with DTT
T5 sequence: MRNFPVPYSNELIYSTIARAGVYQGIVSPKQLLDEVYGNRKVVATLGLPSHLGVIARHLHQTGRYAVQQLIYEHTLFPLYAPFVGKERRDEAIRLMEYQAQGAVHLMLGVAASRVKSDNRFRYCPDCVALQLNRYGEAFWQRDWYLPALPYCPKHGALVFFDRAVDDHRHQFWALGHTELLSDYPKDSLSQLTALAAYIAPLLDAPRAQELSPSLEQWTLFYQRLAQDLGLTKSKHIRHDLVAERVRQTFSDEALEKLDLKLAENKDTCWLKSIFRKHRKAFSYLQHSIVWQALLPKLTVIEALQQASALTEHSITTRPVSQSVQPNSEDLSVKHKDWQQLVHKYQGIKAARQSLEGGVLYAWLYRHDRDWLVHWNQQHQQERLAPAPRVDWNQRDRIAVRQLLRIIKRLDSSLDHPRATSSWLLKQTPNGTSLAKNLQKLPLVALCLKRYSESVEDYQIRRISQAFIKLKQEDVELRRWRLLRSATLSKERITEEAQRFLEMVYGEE

B1: attTn7 wt (+23 to +58) (dsDNA)
DNA 1: CCGCGTAACCTGGCAAAATCGGTTACGGTTGAGTAA
DNA 2: TTACTCAACCGTAACCGATTTTGCCAGGTTACGCGG
Q: With B1 as the binder, how does the binding signal (TnsD P417L) read?
A: The binding signal was 0.07 relative to wt.

Q: And the binding signal (TnsD A497I)?
A: The binding signal was 0.05 relative to wt.

Q: And the binding signal (TnsD W371Z)?
A: Its binding signal is < 0.05 relative to wt.

Q: What about the binding signal (TnsD G109E) of the same binder?
A: The binding signal was 0.05 relative to wt.

Q: And the binding signal (TnsD wt)?
A: Its binding signal is 1 relative to wt.
